Measurements reported in patent US20210284734A1 (SYMPHOGEN A S, published 2021).

T1: cyno PD1 (limits assumed)
T1 construct: also called cynomolgus PD-1 expressed on CFSE-stained CHO-S cells
T1 receptor: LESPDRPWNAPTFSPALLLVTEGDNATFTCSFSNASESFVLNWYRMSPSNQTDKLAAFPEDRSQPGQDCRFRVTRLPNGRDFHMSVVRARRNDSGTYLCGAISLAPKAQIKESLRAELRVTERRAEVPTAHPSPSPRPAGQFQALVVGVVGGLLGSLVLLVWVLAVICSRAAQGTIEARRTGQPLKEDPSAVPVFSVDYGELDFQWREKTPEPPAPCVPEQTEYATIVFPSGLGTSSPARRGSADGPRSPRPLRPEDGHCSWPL

T2: His-tagged cynomolgus PD-1 ECD (cynomolgus (Macaca fascicularis), UniProt Q15116 25-170 (human entry))
T2 construct: bought from Acro Biosystems; not shown: His tag
T2 chain: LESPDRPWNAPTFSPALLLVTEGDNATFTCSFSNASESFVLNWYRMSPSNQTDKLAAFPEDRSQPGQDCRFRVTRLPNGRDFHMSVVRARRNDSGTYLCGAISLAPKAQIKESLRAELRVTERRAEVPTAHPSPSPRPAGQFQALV

B1: 12892.13195 (antibody, human IgG1, lambda, L234A L235A)
heavy: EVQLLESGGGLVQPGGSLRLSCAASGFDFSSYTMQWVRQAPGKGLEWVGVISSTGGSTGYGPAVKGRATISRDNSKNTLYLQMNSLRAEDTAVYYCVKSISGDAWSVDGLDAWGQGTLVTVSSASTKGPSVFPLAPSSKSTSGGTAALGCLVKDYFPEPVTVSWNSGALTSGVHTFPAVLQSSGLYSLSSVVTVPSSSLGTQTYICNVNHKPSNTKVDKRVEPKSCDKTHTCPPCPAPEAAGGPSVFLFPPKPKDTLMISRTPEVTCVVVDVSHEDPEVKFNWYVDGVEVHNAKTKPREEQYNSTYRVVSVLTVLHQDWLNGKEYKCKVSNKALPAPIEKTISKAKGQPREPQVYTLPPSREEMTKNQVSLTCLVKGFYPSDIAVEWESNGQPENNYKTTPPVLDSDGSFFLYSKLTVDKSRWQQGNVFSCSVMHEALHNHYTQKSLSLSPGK
light: ELTQDPAVSVALGQTVRITCSGGGSAYGWYQQKPGQAPVTVIYYNNQRPSGIPDRFSGSSSGNTASLTITGAQAEDEADYYCGSYDSSAVGIFGSGTKVTVLGQPKANPTVTLFPPSSEELQANKATLVCLISDFYPGAVTVAWKADGSPVKAGVETTKPSKQSNNKYAASSYLSLTPEQWKSHRSYSCQVTHEGSTVEKTVAPTECS
notes: same as 12892.15378 but without the N-terminal SY of the light chain
B2: 12819.13367 (antibody, human IgG1, lambda, L234A L235A)
heavy: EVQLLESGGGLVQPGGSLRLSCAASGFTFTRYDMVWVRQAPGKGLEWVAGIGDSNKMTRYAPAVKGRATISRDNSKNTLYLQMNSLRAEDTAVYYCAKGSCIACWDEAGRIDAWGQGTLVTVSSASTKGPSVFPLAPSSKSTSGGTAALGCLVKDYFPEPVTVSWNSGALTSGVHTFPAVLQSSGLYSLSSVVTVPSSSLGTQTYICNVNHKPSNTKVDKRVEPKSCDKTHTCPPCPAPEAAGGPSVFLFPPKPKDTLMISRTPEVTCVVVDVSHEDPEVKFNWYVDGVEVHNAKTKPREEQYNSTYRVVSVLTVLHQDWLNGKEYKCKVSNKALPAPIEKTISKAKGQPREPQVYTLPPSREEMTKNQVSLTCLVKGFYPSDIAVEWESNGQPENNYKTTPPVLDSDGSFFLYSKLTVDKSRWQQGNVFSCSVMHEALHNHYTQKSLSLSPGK
light: ELTQDPAVSVALGQTVRITCSGGGSYDGSSYYGWYQQKPGQAPVTVIYNNNNRPSDIPDRFSGSSSGNTASLTITGAQAEDEADYYCGSYDRPETNSDYVGMFGSGTKVTVLGQPKANPTVTLFPPSSEELQANKATLVCLISDFYPGAVTVAWKADGSPVKAGVETTKPSKQSNNKYAASSYLSLTPEQWKSHRSYSCQVTHEGSTVEKTVAPTECS
B3: 12777.13362 (antibody, human IgG1, lambda, L234A L235A)
heavy: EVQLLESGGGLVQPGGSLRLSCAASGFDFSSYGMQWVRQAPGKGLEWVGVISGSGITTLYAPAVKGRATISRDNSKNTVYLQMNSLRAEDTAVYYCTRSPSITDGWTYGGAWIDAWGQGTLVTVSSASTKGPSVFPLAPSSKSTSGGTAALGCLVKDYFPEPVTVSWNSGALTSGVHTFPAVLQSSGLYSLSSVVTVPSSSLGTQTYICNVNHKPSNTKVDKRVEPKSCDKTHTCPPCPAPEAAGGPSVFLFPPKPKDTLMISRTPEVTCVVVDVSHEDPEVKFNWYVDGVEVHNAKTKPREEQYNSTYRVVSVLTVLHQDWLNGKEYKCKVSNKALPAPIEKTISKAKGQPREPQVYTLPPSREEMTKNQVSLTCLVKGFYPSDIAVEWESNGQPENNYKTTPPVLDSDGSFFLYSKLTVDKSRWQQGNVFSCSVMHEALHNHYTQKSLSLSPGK
light: ELTQDPAVSVALGQTVRITCSGGDGSYGWFQQKPGQAPVTVIYDNDNRPSDIPDRFSGSSSGNTASLTITGAQAEDEADYYCGNADLSGGIFGSGTKVTVLGQPKANPTVTLFPPSSEELQANKATLVCLISDFYPGAVTVAWKADGSPVKAGVETTKPSKQSNNKYAASSYLSLTPEQWKSHRSYSCQVTHEGSTVEKTVAPTECS
notes: same as 12777.15382 but without the N-terminal SY of the light chain
B4: 13112.13208 (antibody, human IgG1, lambda, L234A L235A)
heavy: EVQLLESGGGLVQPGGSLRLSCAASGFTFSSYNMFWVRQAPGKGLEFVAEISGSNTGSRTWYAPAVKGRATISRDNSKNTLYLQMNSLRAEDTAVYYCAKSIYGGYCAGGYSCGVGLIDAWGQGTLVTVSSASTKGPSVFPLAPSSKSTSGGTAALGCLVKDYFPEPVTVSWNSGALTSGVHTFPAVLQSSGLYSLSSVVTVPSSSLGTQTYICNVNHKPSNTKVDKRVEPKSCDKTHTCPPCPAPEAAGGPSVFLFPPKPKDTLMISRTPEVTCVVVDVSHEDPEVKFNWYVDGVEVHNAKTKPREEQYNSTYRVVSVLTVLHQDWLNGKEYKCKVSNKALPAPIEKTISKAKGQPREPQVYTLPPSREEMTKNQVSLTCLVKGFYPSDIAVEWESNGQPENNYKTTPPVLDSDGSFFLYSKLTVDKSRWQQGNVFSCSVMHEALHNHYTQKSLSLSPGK
light: ELTQDPAVSVALGQTVRITCSGGSSDYYGWFQQKPGQAPVTVIYYNNKRPSDIPDRFSGSSSGNTASLTITGAQAEDEADYYCGNADSSVGVFGSGTKVTVLGQPKANPTVTLFPPSSEELQANKATLVCLISDFYPGAVTVAWKADGSPVKAGVETTKPSKQSNNKYAASSYLSLTPEQWKSHRSYSCQVTHEGSTVEKTVAPTECS
notes: same as 13112.15380 but without the N-terminal SY of the light chain
B5: 12892.15378 (antibody, human IgG1, lambda, L234A L235A)
heavy: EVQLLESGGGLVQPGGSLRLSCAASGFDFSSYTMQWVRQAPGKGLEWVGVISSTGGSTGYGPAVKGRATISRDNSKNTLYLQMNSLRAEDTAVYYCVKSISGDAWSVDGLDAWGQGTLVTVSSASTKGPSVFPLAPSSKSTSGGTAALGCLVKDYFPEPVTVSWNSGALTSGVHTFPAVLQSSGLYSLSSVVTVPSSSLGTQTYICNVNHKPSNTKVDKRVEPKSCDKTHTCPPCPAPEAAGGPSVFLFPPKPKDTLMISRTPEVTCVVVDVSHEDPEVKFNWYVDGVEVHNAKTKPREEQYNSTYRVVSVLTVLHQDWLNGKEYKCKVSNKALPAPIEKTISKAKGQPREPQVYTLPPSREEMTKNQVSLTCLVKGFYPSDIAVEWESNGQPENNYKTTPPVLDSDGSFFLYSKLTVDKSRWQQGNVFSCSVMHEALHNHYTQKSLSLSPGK
light: SYELTQDPAVSVALGQTVRITCSGGGSAYGWYQQKPGQAPVTVIYYNNQRPSGIPDRFSGSSSGNTASLTITGAQAEDEADYYCGSYDSSAVGIFGSGTKVTVLGQPKANPTVTLFPPSSEELQANKATLVCLISDFYPGAVTVAWKADGSPVKAGVETTKPSKQSNNKYAASSYLSLTPEQWKSHRSYSCQVTHEGSTVEKTVAPTECS
notes: humanized, IgG1 LALA, lambda
B6: 12796.15376 (antibody, human IgG1, lambda, L234A L235A, V domains shown)
VH: EVQLLESGGGLVQPGGSLRLSCAASGFDFSSYTMQWVRQAPGKGLEWVGVISSTGGSTGYGPAVKGRATISRDNSKNTLYLQMNSLRAEDTAVYYCVKSVSGDAWSVDGLDAWGQGTLVTVSS
VL: SYELTQDPAVSVALGQTVRITCSGGGSAYGWYQQKPGQAPVTVIYYNNQRPSDIPDRFSGSSSGNTASLTITGAQAEDEADYYCGSYDSSAVGIFGSGTKVTVLG
notes: humanized, IgG1 LALA, lambda
B7: 12748.15381 (antibody, human IgG1, lambda, L234A L235A, V domains shown)
VH: EVQLLESGGGLVQPGGSLRLSCAASGFTFSDYAMNWVRQAPGKGLEWVAGIGNDGSYTNYGAAVKGRATISRDNSKNTLYLQMNSLRAEDTAVYYCASDIRSRNDCSYFLGGCSSGFIDVWGQGTLVTVSS
VL: SYELTQDPAVSVALGQTVRITCSGGSSYSYGWFQQKPGQAPVTVIYESNNRPSDIPDRFSGSSSGNTASLTITGAQAEDEADYYCGNADSSSGIFGSGTKVTVLG
notes: humanized, IgG1 LALA, lambda
B8: 12748.16124 (antibody, human IgG1, lambda, L234A L235A, V domains shown)
VH: B7 VH
VL: SYELTQPPSVSVSPGQTARITCSGGSSYSYGWFQQKPGQAPVTVIYESNNRPSDIPERFSGSSSGTTVTLTISGVQAEDEADYYCGNADSSSGIFGSGTKVTVLG
notes: alternative germline VL variant of 12748.15381; IgG1 LALA, lambda
B9: 12865.15377 (antibody, human IgG1, lambda, L234A L235A, V domains shown)
VH: EVQLLESGGGLVQPGGSLRLSCAASGFDFSDHGMQWVRQAPGKGLEYVGVIDTTGRYTYYAPAVKGRATISRDNSKNTLYLQMNSLRAEDTAVYYCAKTTCVGGYLCNTVGSIDAWGQGTLVTVSS
VL: SYELTQDPAVSVALGQTVRITCSGGGSSSYYGWYQQKPGQAPVTVIYDDTNRPSGIPDRFSGSSSGNTASLTITGAQAEDEADYYCGGYEGSSHAGIFGSGTKVTVLG
notes: humanized, IgG1 LALA, lambda
B10: 12777.15382 (antibody, human IgG1, lambda, L234A L235A)
heavy: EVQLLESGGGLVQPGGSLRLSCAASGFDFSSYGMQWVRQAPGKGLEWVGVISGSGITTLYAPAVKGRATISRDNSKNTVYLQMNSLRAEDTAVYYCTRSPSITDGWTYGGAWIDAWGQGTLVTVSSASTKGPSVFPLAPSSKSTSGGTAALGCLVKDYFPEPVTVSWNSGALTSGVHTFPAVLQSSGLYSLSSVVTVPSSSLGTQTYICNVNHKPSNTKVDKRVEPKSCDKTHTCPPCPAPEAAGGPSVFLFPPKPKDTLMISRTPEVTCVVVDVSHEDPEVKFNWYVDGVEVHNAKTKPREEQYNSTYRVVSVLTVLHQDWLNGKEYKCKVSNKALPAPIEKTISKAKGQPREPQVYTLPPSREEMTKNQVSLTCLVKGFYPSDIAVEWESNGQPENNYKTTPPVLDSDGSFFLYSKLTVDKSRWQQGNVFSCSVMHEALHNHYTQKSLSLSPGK
light: SYELTQDPAVSVALGQTVRITCSGGDGSYGWFQQKPGQAPVTVIYDNDNRPSDIPDRFSGSSSGNTASLTITGAQAEDEADYYCGNADLSGGIFGSGTKVTVLGQPKANPTVTLFPPSSEELQANKATLVCLISDFYPGAVTVAWKADGSPVKAGVETTKPSKQSNNKYAASSYLSLTPEQWKSHRSYSCQVTHEGSTVEKTVAPTECS
notes: humanized, IgG1 LALA, lambda
B11: 13112.15380 (antibody, human IgG1, lambda, L234A L235A)
heavy: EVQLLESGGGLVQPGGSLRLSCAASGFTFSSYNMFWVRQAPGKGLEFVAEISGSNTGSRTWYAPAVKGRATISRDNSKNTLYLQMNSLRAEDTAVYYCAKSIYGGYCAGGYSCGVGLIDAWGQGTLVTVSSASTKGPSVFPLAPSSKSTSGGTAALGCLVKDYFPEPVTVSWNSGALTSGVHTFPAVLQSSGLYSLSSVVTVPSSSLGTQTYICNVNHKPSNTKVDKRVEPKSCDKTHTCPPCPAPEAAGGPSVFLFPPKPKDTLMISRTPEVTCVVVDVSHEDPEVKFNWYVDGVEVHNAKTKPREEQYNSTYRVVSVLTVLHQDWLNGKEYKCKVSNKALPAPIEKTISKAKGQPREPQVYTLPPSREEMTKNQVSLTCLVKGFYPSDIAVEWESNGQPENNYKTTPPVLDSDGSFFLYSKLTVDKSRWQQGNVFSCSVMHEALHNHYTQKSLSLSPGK
light: SYELTQDPAVSVALGQTVRITCSGGSSDYYGWFQQKPGQAPVTVIYYNNKRPSDIPDRFSGSSSGNTASLTITGAQAEDEADYYCGNADSSVGVFGSGTKVTVLGQPKANPTVTLFPPSSEELQANKATLVCLISDFYPGAVTVAWKADGSPVKAGVETTKPSKQSNNKYAASSYLSLTPEQWKSHRSYSCQVTHEGSTVEKTVAPTECS
notes: humanized, IgG1 LALA, lambda; whole antibody
B12: 12760.15375 (antibody, human IgG1, lambda, L234A L235A, V domains shown)
VH: EVQLLESGGGLVQPGGSLRLSCAASGFTFSTFNMVWVRQAPGKGLEYVAEISSDGSFTWYATAVKGRATISRDNSKNTVYLQMNSLRAEDTAVYYCAKSDCSSSYYGYSCIGIIDAWGQGTLVTVSS
VL: SYELTQDPAVSVALGQTVRITCSGGISDDGSYYYGWFQQKPGQAPVTVIYINDRRPSNIPDRFSGSSSGNTASLTITGAQAEDEADYYCGSYDSSAGVGIFGSGTKVTVLG
notes: humanized, IgG1 LALA, lambda

Biological target: T3, human PD-1 expressed on CHO-S cells (human, UniProt Q15116 25-288)
T3 construct: also called PD-1-expressing cells
Assay: flow cytometry competition, 10 ug/ml antibody vs R-PE PD-L1-Fc on PD-1 CHO-S cells
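Throughout, for % of all cells in Q1 of panel PD-L1 binding (PD-L1+, CFSE- human PD1 cells): human PD-1 CHO-S cells mixed with CFSE-labelled cyno PD-1 CHO-S cells, antibody binding read with APC anti-human IgG light chain detection.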
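Throughout, for % of all cells in Q4 of panel PD-L1 binding (PD-L1-, CFSE- human PD1 cells): human PD-1 CHO-S cells mixed with CFSE-labelled cyno PD-1 CHO-S cells, antibody binding read with APC anti-human IgG light chain detection.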
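Throughout, for % of human PD1-gated cells in Q1 (mAb+, PD-L1-): human PD-1 CHO-S cells mixed with CFSE-labelled cyno PD-1 CHO-S cells, antibody binding read with APC anti-human IgG light chain detection.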
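Throughout, for % of human PD1-gated cells in Q2 (mAb+, PD-L1+): human PD-1 CHO-S cells mixed with CFSE-labelled cyno PD-1 CHO-S cells, antibody binding read with APC anti-human IgG light chain detection.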

T3 sequence (Q15116 25-288 limits assumed): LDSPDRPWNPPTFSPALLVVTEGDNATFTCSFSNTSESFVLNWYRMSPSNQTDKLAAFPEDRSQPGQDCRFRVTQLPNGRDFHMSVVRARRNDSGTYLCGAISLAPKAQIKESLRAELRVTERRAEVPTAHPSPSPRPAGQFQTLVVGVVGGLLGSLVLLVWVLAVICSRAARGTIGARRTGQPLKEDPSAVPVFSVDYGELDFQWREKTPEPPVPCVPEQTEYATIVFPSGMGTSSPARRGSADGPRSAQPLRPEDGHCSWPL

| % PD-L1 binding inhibition [%] | Binder |
| --- | --- |
| 88 | B1 |
| 87 | B2 |
| 69 | B3 |
| 5 | B4 |

Biological target: T3, human PD-1 expressed on CHO-S cells
Assay: flow cytometry, PD-1-transfected CHO-S cells; mAb 10 ug/ml, then R-PE PD-L1-Fc as blocked ligand

| % of all cells in Q1 of panel PD-L1 binding (PD-L1+, CFSE- human PD1 cells) [%] | % of all cells in Q4 of panel PD-L1 binding (PD-L1-, CFSE- human PD1 cells) [%] | % of human PD1-gated cells in Q1 (mAb+, PD-L1-) [%] | % of human PD1-gated cells in Q2 (mAb+, PD-L1+) [%] | % of human PD1-gated cells in Q3 (mAb-, PD-L1+) [%] | % of human PD1-gated cells in Q4 (mAb-, PD-L1-) [%] | Binder |
| --- | --- | --- | --- | --- | --- | --- |
| 0.59 | 43.8 | 56.1 | 5.3 | 0.45 | 38.2 | B1 |
| 0.73 | 47.6 | 58.8 | 5.85 | 0.37 | 35 | B2 |
| 2.56 | 45.3 | 59.6 | 14.3 | 0.28 | 25.9 | B3 |

Biological target: T1, cyno PD1
Assay: as above

| % of all cells in Q3 of panel PD-L1 binding (PD-L1-, CFSE+ cyno PD1 cells) [%] | % of cyno PD1-gated cells in Q1 (mAb+, PD-L1-) [%] | % of cyno PD1-gated cells in Q2 (mAb+, PD-L1+) [%] | % of cyno PD1-gated cells in Q3 (mAb-, PD-L1+) [%] | % of cyno PD1-gated cells in Q4 (mAb-, PD-L1-) [%] | Binder |
| --- | --- | --- | --- | --- | --- |
| 55.2 | 42.9 | 3.36 | 1.28 | 52.5 | B1 |
| 51.1 | 47.8 | 3.87 | 0.99 | 47.3 | B2 |
| 50 | 51.8 | 11.4 | 0.74 | 36.1 | B3 |

Biological target: T4, human PD-1 Fc fusion protein (Sino Biological) (human, UniProt Q15116 25-167, limits assumed)
T4 construct: bought; not shown: Fc of the commercial fusion protein
Assay: BLI, PD-1-Fc saturated with 10 ug/ml antibody, then PD-L1-Fc

T4 sequence (Q15116 25-167 limits assumed): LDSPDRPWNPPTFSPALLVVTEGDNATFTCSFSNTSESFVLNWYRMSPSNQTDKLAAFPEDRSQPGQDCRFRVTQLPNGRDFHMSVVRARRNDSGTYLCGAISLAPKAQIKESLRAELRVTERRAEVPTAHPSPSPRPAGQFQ

| % Blocking [%] | Binder |
| --- | --- |
| 88 | B1 |
| 94 | B2 |
| 93 | B3 |
| 53 | B4 |

Biological target: T4, human PD-1 Fc fusion protein (Sino …)
Assay: BLI, PD-1-Fc saturated with 10 ug/ml antibody, then PD-L2-Fc

| % Blocking [%] | Binder |
| --- | --- |
| 77 | B1 |
| 94 | B2 |
| 90 | B3 |
| 27 | B4 |

Biological target: T2, His-tagged cynomolgus PD-1 ECD
Assay: SPR, IgG captured, monovalent PD-1 ECD analyte

| Kd [nM] | koff [s⁻¹] | kon [M⁻¹ s⁻¹] | Binder |
| --- | --- | --- | --- |
| 2.34 | 0.00069 | 290000 | B5 |
| 2.22 | 0.0007 | 320000 | B6 |
| 0.101 | 0.00047 | 4.6e+06 | B7 |
| 0.081 | 0.00039 | 4.8e+06 | B8 |
| 0.738 | 0.00038 | 510000 | B9 |
| 0.681 | 0.00017 | 250000 | B10 |
| 0.452 | 0.0011 | 2.5e+06 | B11 |
| 6.94 | 0.0072 | 1e+06 | B12 |

Biological target: T5, His-tagged human PD-1 ECD (human, UniProt Q15116 25-170)
T5 construct: bought from Acro Biosystems; not shown: His tag
Assay: SPR, IgG captured, monovalent PD-1 ECD analyte

T5 sequence (Q15116 25-170): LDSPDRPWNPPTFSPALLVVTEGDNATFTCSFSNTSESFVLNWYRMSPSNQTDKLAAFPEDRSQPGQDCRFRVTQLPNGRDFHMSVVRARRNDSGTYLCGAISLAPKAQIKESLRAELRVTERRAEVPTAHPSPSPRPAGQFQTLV

| Kd [nM] | koff [s⁻¹] | kon [M⁻¹ s⁻¹] | Binder |
| --- | --- | --- | --- |
| 0.737 | 0.00034 | 460000 | B5 |
| 0.542 | 0.00038 | 710000 | B6 |
| 0.054 | 0.00017 | 3.2e+06 | B7 |
| 0.047 | 0.00016 | 3.4e+06 | B8 |
| 0.558 | 0.00023 | 420000 | B9 |
| 0.337 | 8e-05 | 240000 | B10 |
| 0.06 | 6.9e-05 | 1.2e+06 | B11 |
| 0.112 | 0.00014 | 1.2e+06 | B12 |
